The record followed here is publication PMC4742754, “Biochemical and Structural Characterization of the Interaction between the Siderocalin NGAL/LCN2 (Neutrophil Gelatinase-associated Lipocalin/Lipocalin 2) and the N-terminal Domain of Its Endocytic Receptor SLC22A17*” (The Journal of Biological Chemistry, 2015).

In general, Kd refers to the equilibrium constant for the complex coming apart. Lower therefore signals a tighter complex. As a reminder, the stoichiometry N is a count of units in the complex or per binding partner.

In assay [1] the target is N-terminal domain of the human lipocalin 2 receptor (hLCN2-R-NTD), wild type (human) (UniProt Q8WUG5). The experiment in a line: ITC; apoNGAL (500 μM) in the syringe, hLCN2-R-NTD form (50 μM) in the cell; 25 °C, 20 mM Tris, pH 7.4, 50 mM NaCl; single binding site fit. For orientation: In ITC the heat of successive injections is recorded.
In assay [2] the target is hLCN2-R-NTD double mutant (hLCN2-R-NTD-DM), Cys-15–Cys-94 mutated out (human) (UniProt Q8WUG5). The description is as above.
Assay [3] addresses hLCN2-R-NTD quadruple mutant (hLCN2-R-NTD-QM) (human) (UniProt Q8WUG5). Described as above.
Assay [4] has the same target. The experiment in a line: NMR 15N CPMG relaxation dispersion; 15N-labelled hLCN2-R-NTD-QM with 0.05, 0.1 and 0.15 eq of unlabelled NGAL; 25 °C; two-state exchange fit, kex and populations as global parameters for the C-terminal residues.
For assay [5], the target named is T1, human neutrophil gelatinase-associated lipocalin, hNGAL(C87S) (human, UniProt P80188 21-198, C87S).
T1 construct: human NGAL (LCN2), coding region amplified from pGEX-4T-hNGAL(C87S); The holo form is the same protein loaded with ferric enterobactin (a small molecule); it is told apart by the assay; the wild type was made only for the spin label; also called apoNGAL; LCN2; not shown: His6, N-terminal, cleaved
The experiment in a line: MST; GFP-hLCN2-R-NTD fixed at 500 nM, apoNGAL varied 0–300 μM; 20 mM Tris/HCl, pH 7.4, 25 °C. To be noted: both partners purified.

Assay [6] concerns the target T1, human neutrophil gelatinase-associated …. The experiment in a line: MST; GFP-hLCN2-R-NTD fixed at 500 nM, NGAL/[FeIII(Ent)]3- (NGAL loaded with ferric enterobactin) varied 0–300 μM; 20 mM Tris/HCl, pH 7.4, 25 °C. To be noted: both partners purified.

T1 sequence (P80188 21-198 C107S): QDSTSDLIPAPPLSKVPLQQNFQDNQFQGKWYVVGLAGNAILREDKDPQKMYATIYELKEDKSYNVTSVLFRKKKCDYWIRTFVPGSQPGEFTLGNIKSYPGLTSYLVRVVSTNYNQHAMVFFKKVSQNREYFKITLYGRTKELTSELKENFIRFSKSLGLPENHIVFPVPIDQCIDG

Take “human neutrophil gelatinase-associated lipocalin, hNGAL(C87S) (from UniProt P80188 21-198) (ligand)”: in assay [1], the dissociation constant Kd is 10 µM, the dH was -4.5 kcal/mol and the stoichiometry N amounted to 1. Further, in assay [2], the Kd was found to be 9 µM and the dH is -2.1 kcal/mol. Besides, in assay [3], the Kd stood at 8 µM and the dH is -1.4 kcal/mol. In assay [4], this molecule showed a kex (0.1 eq of NGAL) of 1300 s⁻¹, a kex (0.15 eq of NGAL) of 1200 s⁻¹ and a population of bound state (0.1 eq of NGAL) of 1%.

B1: GFP-hLCN2-R-NTD (domain or fragment)
chain: MASDPIFTLAPPLHCHYGAFPPNASGWEQPPNASGVSVASAALAASAASRVATSTDPSCSGFAPPDFNHCLKDWDYNGLPVLTTNAIGQWDLVCDLGWQVILEQI
modifications: Limits: printed residues 1-105 are numbered on the 538-aa isoform (NM_020372); the 649-aa entry is taken to carry a 111-residue N-terminal extension (649-538), so offset +111 (Cys15/59/70/94 = …)
For the molecule B1, the figures for the Kd in assay [5] and in assay [6] were 6.6 µM and 20.7 µM, respectively.
